In article doi:10.1101/2025.05.02.651972:

Target: recombinant extracellular domain of EGFR (human) (UniProt P00533)
Experiment: MST

Work on “recombinant epiregulin (from UniProt O14944) (ligand)” yielded a Kd of 0.5 µM.
